System: peptide library, one residue held at a place counted from the S/T acceptor
Assay: relative phosphorylation of the sub-library (ratio to the mean residue at this position); human; higher = residue favoured
Outline: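 In 384-well plates, purified recombinant kinases (human or orthologue constructs) were incubated for 90 min under kinase-specific conditions with 50 μM biotinylated degenerate peptide sub-libraries and 50 μM ATP spiked with γ-32P-ATP. Each sub-library fixed a single residue at one position around a central Ser/Thr. Relative sub-library phosphorylation, measured by phosphorimaging and densitometry of streptavidin membrane spots, is given as a ratio to the mean residue at that position.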

Sequence of TNIK, construct: aa1-314 (Q9UKE5 1-314, looked up): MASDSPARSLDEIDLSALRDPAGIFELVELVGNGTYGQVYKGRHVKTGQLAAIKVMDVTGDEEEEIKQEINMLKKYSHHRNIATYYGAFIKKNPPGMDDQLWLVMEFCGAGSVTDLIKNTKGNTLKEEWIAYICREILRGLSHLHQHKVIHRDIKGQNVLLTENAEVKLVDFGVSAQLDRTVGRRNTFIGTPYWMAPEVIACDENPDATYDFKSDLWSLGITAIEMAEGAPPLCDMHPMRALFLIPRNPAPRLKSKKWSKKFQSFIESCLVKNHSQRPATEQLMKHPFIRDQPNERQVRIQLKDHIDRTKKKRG
Sequence of CDKL1, construct: aa2-304 (Q00532 2-304, looked up): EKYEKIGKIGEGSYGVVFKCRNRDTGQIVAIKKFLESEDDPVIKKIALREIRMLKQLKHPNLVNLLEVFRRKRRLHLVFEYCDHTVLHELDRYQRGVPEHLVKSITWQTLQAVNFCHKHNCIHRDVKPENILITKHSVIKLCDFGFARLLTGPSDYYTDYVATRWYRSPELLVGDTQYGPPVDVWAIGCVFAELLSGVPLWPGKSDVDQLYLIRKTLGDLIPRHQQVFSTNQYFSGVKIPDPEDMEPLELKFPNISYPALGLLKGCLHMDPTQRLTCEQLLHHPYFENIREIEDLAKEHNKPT

CDKL1, construct: aa2-304 (from UniProt Q00532)
relative phosphorylation
Conditions | at +1 | at +2 | at +3 | at +4 | at -1 | at -2 | at -3 | at -4 | at -5
A fixed | 1.42 | 0.825 | 0.9 | 0.849 | 0.875 | 0.874 | 0.724 | 0.985 | 0.964
D fixed | 0.679 | 0.924 | 0.793 | 0.858 | 0.693 | 0.715 | 0.534 | 0.874 | 0.771
E fixed | 0.721 | 0.803 | 0.747 | 0.766 | 0.67 | 0.739 | 0.538 | 0.917 | 0.809
F fixed | 0.888 | 0.829 | 0.924 | 0.916 | 0.835 | 0.724 | 0.531 | 0.934 | 1.21
G fixed | 1.15 | 0.764 | 0.865 | 1.04 | 1.56 | 1.01 | 0.617 | 1.01 | 1
H fixed | 1.02 | 1.22 | 1.13 | 1.07 | 1.02 | 0.727 | 0.593 | 0.926 | 0.987
I fixed | 0.732 | 0.881 | 0.865 | 0.856 | 0.644 | 0.96 | 0.537 | 0.883 | 0.961
K fixed | 1.25 | 1.52 | 1.43 | 1.31 | 1.61 | 0.898 | 0.852 | 1.22 | 1.08
L fixed | 0.755 | 0.898 | 0.928 | 0.939 | 0.988 | 0.909 | 0.549 | 0.909 | 0.976
M fixed | 0.862 | 0.841 | 0.9 | 0.953 | 1.19 | 0.774 | 0.549 | 0.937 | 0.96
N fixed | 0.871 | 1.05 | 1 | 1.08 | 1.01 | 0.778 | 0.585 | 0.925 | 0.919
P fixed | 1.92 | 0.774 | 0.978 | 0.98 | 1.02 | 3.55 | 0.704 | 1.05 | 0.918
Q fixed | 0.894 | 1.03 | 1.05 | 1.07 | 1.05 | 0.856 | 0.707 | 1.08 | 0.972
R fixed | 1.33 | 2.02 | 1.63 | 1.47 | 1.44 | 1.21 | 7.35 | 1.54 | 1.63
V fixed | 0.744 | 0.888 | 0.944 | 0.83 | 0.736 | 0.873 | 0.54 | 0.967 | 0.896
W fixed | 0.819 | 0.808 | 0.899 | 1.09 | 0.768 | 0.71 | 0.539 | 0.944 | 0.889
Y fixed | 0.941 | 0.931 | 1.02 | 0.907 | 0.884 | 0.698 | 0.55 | 0.899 | 1.06
pThr fixed | 0.811 | 0.892 | 0.844 | 0.824 | 0.778 | 0.799 | 0.576 | 0.837 | 0.737
pTyr fixed | 0.652 | 0.663 | 0.733 | 0.692 | 0.717 | 0.75 | 0.786 | 0.876 | 0.726

TNIK, construct: aa1-314 (from UniProt Q9UKE5)
relative phosphorylation
Conditions | at +1 | at +2 | at +3 | at +4 | at -1 | at -2 | at -3 | at -4 | at -5
A fixed | 0.761 | 1.16 | 0.938 | 1.13 | 1.07 | 1.21 | 1.01 | 1.08 | 1.36
D fixed | 0.223 | 0.678 | 0.496 | 0.73 | 0.855 | 0.883 | 0.799 | 0.968 | 0.923
E fixed | 0.249 | 0.591 | 0.389 | 0.656 | 0.682 | 0.577 | 0.76 | 1.1 | 0.885
F fixed | 0.89 | 0.449 | 0.465 | 0.632 | 0.699 | 1.24 | 0.895 | 0.959 | 0.909
G fixed | 0.746 | 1.01 | 0.904 | 1.17 | 1.73 | 1.3 | 1.2 | 1.18 | 1.31
H fixed | 0.916 | 1.28 | 0.94 | 1.06 | 1.52 | 1.19 | 1.47 | 1.13 | 1.02
I fixed | 1.49 | 0.459 | 0.381 | 0.593 | 0.326 | 0.689 | 0.701 | 0.73 | 0.724
K fixed | 1.08 | 2.49 | 3.02 | 2.18 | 1.36 | 0.919 | 1.44 | 1.17 | 1.2
L fixed | 2.4 | 0.685 | 0.777 | 0.636 | 0.803 | 0.595 | 0.67 | 0.751 | 0.619
M fixed | 1.98 | 0.806 | 0.52 | 0.715 | 1.06 | 0.79 | 0.814 | 0.866 | 0.793
N fixed | 0.843 | 0.992 | 0.871 | 1.02 | 1.33 | 1.19 | 1.15 | 0.792 | 1.02
P fixed | 0.338 | 1.05 | 1.14 | 1.23 | 0.65 | 0.736 | 1.08 | 1.18 | 1.41
Q fixed | 0.782 | 1.04 | 0.886 | 1.04 | 0.859 | 0.987 | 0.896 | 0.964 | 0.912
R fixed | 0.995 | 2.4 | 3.23 | 2.2 | 1.7 | 1.19 | 1.33 | 1.17 | 1.22
V fixed | 0.898 | 0.531 | 0.503 | 0.65 | 0.438 | 0.785 | 0.594 | 0.816 | 0.891
W fixed | 1.32 | 0.593 | 0.789 | 0.738 | 0.685 | 1.17 | 1.04 | 0.954 | 0.771
Y fixed | 1.08 | 0.783 | 0.745 | 0.619 | 1.23 | 1.55 | 1.16 | 1.19 | 1.02
pThr fixed | 0.541 | 0.566 | 0.532 | 0.519 | 0.449 | 0.797 | 0.884 | 0.945 | 1
pTyr fixed | 0.42 | 0.505 | 0.638 | 0.581 | 1.02 | 0.969 | 1.22 | 1.15 | 1.03
